The text below walks through data of the supplement of paper PMC12764529.

Data set [1] is described as follows: folding stability dG unfold from trypsin proteolysis; higher = more stable. The method in brief: (§1)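 Unfolding free energy was derived, per protease or combined, by relating Bayesian-fitted K50 values from sequencing counts to a sequence-predicted unfolded-state K50 and a shared folded-state K50. The underlying digests exposed cysteine-free mini-proteins under 80 residues, in a PA-tagged cDNA display construct, to trypsin and chymotrypsin at 11 threefold-diluted concentrations and to a no-protease condition. A filter kept only designs with AlphaFold2 dimer inter-PAE above 15.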

Data set [2] in a line: folding stability dG unfold from chymotrypsin proteolysis; higher = more stable. The method, boiled down: as §1
Data set [3] is described as follows: folding stability dG unfold (combined trypsin and chymotrypsin); higher = more stable. The method in brief: as §1

± gives the half width of the 95% confidence interval.

Take “SAGGSAGGSAMKIPPGETVEEVELSFLPNGEIILKKTTITKKGNTTTVETEVKIVKPDVPLSAGGSAGGSAG [r3_49_JUSTAS]”: the results for the “folding stability dG unfold” value in data set [1], in data set [2] and in data set [3] were 0.877 ± 0.027 kcal/mol, 0.701 ± 0.067 kcal/mol and 0.836 ± 0.1 kcal/mol, respectively.

“SAGGSAGGSAMKKLEYTIPVPPGTLSPEKVKELFKKKYPEYENKEIKVEFSPDGTVKITVIESAGGSAGGSA [r18_65_JUSTAS]”: the “folding stability dG unfold” value stood at 2.38 ± 0.051 kcal/mol in data set [1], 3.17 ± 0.037 kcal/mol in data set [2] and 2.92 ± 0.066 kcal/mol in data set [3].

As for “SAGGSAGGSAMKRVTLTFPSTGKTLTFDFTTEEDIEAAIKAALGPEVDPAKVTVTVLPPGAASAGGSAGGSA [r18_350_JUSTAS]”, the results for the “folding stability dG unfold” value in data set [1], in data set [2] and in data set [3] were 1.04 ± 0.054 kcal/mol, 2.62 ± 0.054 kcal/mol and 2.12 ± 0.3 kcal/mol, respectively.

On to “SAGGSAGGSAMKTITLKDEKGNPLTAEVEKLPNGTIKITITKPGGEKTTYTIPPGEKITLPVSAGGSAGGSA [r18_115_JUSTAS]”, for which the “folding stability dG unfold” value was 2.34 ± 0.16 kcal/mol in data set [1], 2.98 ± 0.05 kcal/mol in data set [2] and 2.77 ± 0.14 kcal/mol in data set [3].

“SAGGSAGGSAMKVTVEEEELEVEPGETVKIKIRLPNGEEREFSLEDLKKLPPGEAEVEIERVSAGGSAGGSA [r18_394_TrROS_Hall]”: the “folding stability dG unfold” value in data set [1] came to 0.583 ± 0.076 kcal/mol; in data set [2], 0.729 ± 0.13 kcal/mol; in data set [3], 0.785 ± 0.18 kcal/mol.

As to “SAGGSAGGSAMKVVSVEAAPGQTVTVRVLVEDPETQELYELEVTVTVTAPEPVTVELPPEASAGGSAGGSAG [r3_271_TrROS_Hall]”, the “folding stability dG unfold” value in data set [1] is 1.89 ± 0.15 kcal/mol; in data set [2], 2.47 ± 0.082 kcal/mol; in data set [3], 2.03 ± 0.23 kcal/mol.

With “SAGGSAGGSAMLLPSEEEAEKAAAELRAKTGWRVTVEKVGTGEDGTVVYRLTVVPPDLPLESAGGSAGGSAG [r3_59_JUSTAS]”, the “folding stability dG unfold” value in data set [1] turned out to be 2.84 ± 0.048 kcal/mol; in data set [2], 3.234 ± 0.019 kcal/mol; in data set [3] it was 3.12 ± 0.06 kcal/mol.

Consider “SAGGSAGGSAMLVALVRVPGTDKPVVARLPREIGREAAEELLREAFPDAEVLEIVEVPEEELSAGGSAGGSA [r18_242_TrMRF]”, for which the “folding stability dG unfold” value in data set [1] was determined as 0.447 ± 0.031 kcal/mol; in data set [2] it was 1.712 ± 0.012 kcal/mol; in data set [3], 1.42 ± 0.031 kcal/mol.

As for “SAGGSAGGSAMPVIELTIKVKTKEEAKKAAEELAKKLEEEFGLKVEVEYDEETKEVKVKIYPSAGGSAGGSA [r18_368_TrROS_Hall]”, the “folding stability dG unfold” value in data set [1] was 2.25 ± 0.12 kcal/mol; in data set [2], 1.79 ± 0.068 kcal/mol; in data set [3], 2.07 ± 0.089 kcal/mol.

Consider “SAGGSAGGSAMQPIRIKITLYNPDNGDTRTYTVEVPDPNMSLDAIAKQLPPGYRIKKVSIMSAGGSAGGSAG [r3_80_TrROS]”, for which the results for the “folding stability dG unfold” value in data set [1], in data set [2] and in data set [3] were 3.38 ± 0.13 kcal/mol, 3.815 ± 0.033 kcal/mol and 3.68 ± 0.13 kcal/mol, respectively.

On to “SAGGSAGGSAMQRVEIYFPGLKKVFTKPFKSLEEVEEAVKELLGPEYNPEKVEIKILPENAESAGGSAGGSA [r18_350_TrMRF]”, for which the “folding stability dG unfold” value in data set [1] was 0.912 ± 0.054 kcal/mol; in data set [2], 1.5 ± 0.14 kcal/mol; in data set [3] it was 1.27 ± 0.17 kcal/mol.

Consider “SAGGSAGGSAMRPVSFTLVSTETAPNGVKVTKYVLTEPTGPAREYTSTNLLVEGSSLTDLSSAGGSAGGSAG [r3_261_JUSTAS]”, for which the “folding stability dG unfold” value came to 0.0443 ± 0.084 kcal/mol in data set [1], 0.239 ± 0.1 kcal/mol in data set [2] and 0.202 ± 0.087 kcal/mol in data set [3].

As for “SAGGSAGGSAMTFTVNSEEEVEKLKKLGGVTKTSEEPGKVTLSAPNLPPELQEKIKEVIQKSAGGSAGGSAG [r3_398_JUSTAS]”, the figures for the “folding stability dG unfold” value in data set [1], in data set [2] and in data set [3] were -0.548 ± 0.2 kcal/mol, 0.434 ± 0.27 kcal/mol and -0.111 ± 0.26 kcal/mol, respectively.

As for “SAGGSAGGSAMTIEELAKKGYEIRIVGPDGKVRTFKVGESLEEIAEKLGLAPGAKIEIRKVSAGGSAGGSAG [r3_216_TrROS_Hall]”, the “folding stability dG unfold” value was found to be 1.48 ± 0.024 kcal/mol in data set [1], 2.07 ± 0.027 kcal/mol in data set [2] and 1.88 ± 0.049 kcal/mol in data set [3].

On to “SAGGSAGGSAMTIEQIANELAKKLGVDIKVVVTYENGEKKEYRPDELKNIPPGPFTVEFYTDSAGGSAGGSA [r18_394_TrMRF]”, for which the “folding stability dG unfold” value in data set [1] came out at 3.01 ± 0.096 kcal/mol; in data set [2] it was 3.71 ± 0.1 kcal/mol; in data set [3], 3.51 ± 0.15 kcal/mol.

As for “SAGGSAGGSAMTIEVTVPPEVPEEEAAERVARALRELFPIPEIKVSVERRPDGIIKVTVEGGSAGGSAGGSA [r18_1_TrMRF]”, the “folding stability dG unfold” value stood at 0.81 ± 0.04 kcal/mol in data set [1], 0.902 ± 0.052 kcal/mol in data set [2] and 0.888 ± 0.1 kcal/mol in data set [3].

For the sequence “SAGGSAGGSAMTITITGLSPEQIEEAAKALGATVTFDKETKTVTITVSPEQLEKLKELLEKSAGGSAGGSAG [r3_354_TrROS_Hall]”, the “folding stability dG unfold” value in data set [1] worked out at 3.51 ± 0.14 kcal/mol; in data set [2] it was 3.58 ± 0.12 kcal/mol; in data set [3], 3.58 ± 0.18 kcal/mol.

Turning to “SAGGSAGGSAMTITKTITFSSKEEAEKFVKELEEKGNITITMTYEKLPSGKYKVTVTITKPSAGGSAGGSAG [r3_273_JUSTAS]”, the “folding stability dG unfold” value in data set [1] was 3.62 ± 0.21 kcal/mol; in data set [2], 3.71 ± 0.049 kcal/mol; in data set [3], 3.68 ± 0.2 kcal/mol.
